Data on eight sequences can be found in the DeepSol protein solubility set.

A short description of this data set: soluble on expression in E. coli; label from the status in PepcDB or PDB records.
On to “MGSDKIHHHHHHMRIMPINSFENYPMSWKPSIDKAEKPIYKALAGQLEQDILNGVLLPGTKLPPQRELADYLDLNVSTISKAFKVCELKGLLSATVGSGTFVSYDALSNAYLLEDTKPTHLIEMGAILPDHASYEPLLYQLKNMVHEEDYEKWFSYGRAGESLWQKDAAVKLIQRGGFETSVDHILFANGGQNAIAATLASLCKPGDRIGVDHHTYPGLKTVASLLSVQIVPIKSENDEMSPESLEYACKNENIKGLYLIPDYHNPTTSFMSVENRRMVADIVKKYNLFVIEDASYHLLNKNPLPALASFAPQQVIHIASLSKSLAPGLRLAYVAVPRQYKEPISKALYNLNITVSPLLAELTARTIVSNQFEVLIESHREQTIRRNQLVNRYVAGYTCLGVETGIFRWLLLPGKMSGAEFEELAARLGVQVYAAERFVVGNSCPERAVRVSVCAPKTLEELEQGLMILRRLLDDLT”, for which the “soluble on expression in E. coli” value was “not soluble”.

On to “MLEQVCQLARNAGDAIMQVYDGAKPMEYARKQDDSPVTAADIAAHTVILEGLRTLTPDIPVLSEEDPPAWEVRQHWQRYWLVDPLDGTKEFIKRNGEFTVNIALIEQGKPVLGVVYAPVLKVMYYAAEGKAWKEECGVRKQIQVRDARPPLVVISRSHTDDELTEYLQQLGEHQTTSIGSSLKFCLVAEGQAQLYPRFGPTSVWDTAAGHAIAVAAGAHVHDWQGKTLDYTPRESFLNPGFRVTIY”, for which the “soluble on expression in E. coli” value is recorded as “not soluble”.

On to “MYYPFVRKALFQLDPERAHEFTFQQLRRITGTPFEALVRQKVPAKPVNCMGLTFKNPLGLAAGLDKDGECIDALGAMGFGSIEIGTVTPRPQPGNDKPRLFRLVDAEGLINRMGFNNLGVDNLVENVKKAHYDGVLGINIGKNKDTPVEQGKDDYLICMEKIYAYAGYIAINISSPNTPGLRTLQYGEALDDLLTAIKNKQNDLQAMHHKYVPIAVKIAPDLSEEELIQVADSLVRHNIDGVIATNTTLDRSLVQGMKNCDQTGGLSGRPLQLKSTEIIRRLSLELNGRLPIIGVGGIDSVIAAREKIAAGASLVQIYSGFIFKGPPLIKEIVTHI”, for which the “soluble on expression in E. coli” value is “soluble”.

Consider “MPLRQDLTPVVITVTGADRHGVTAATFRVLSANNVQILDVEQSKFRGFLSIAVYAGIKASMIDSVEQGLRDTLSVHGQSVSLSVESRTEVSRPRSTHVVVILGNPVGAEDIWKIGQTMADFGANIDGIRGISDYPVTGLELRVTVADPAPGAAEPLRKALAALTTELGVDIVIERAGLQR”, for which the “soluble on expression in E. coli” value is reported as “not soluble”.

In the case of “ENRLVVIVLRGAMDGLDLVRPVGDPLFATYRPRLAQDGQKGEGGVIPLSEGFVLHPLLNGLSALWRKGELGFVHAVSTPYRDKRSHFDGQDMLEAGTGPDVPPGVARDGWLNRMLQAVPGLEAETAWAIGRDPLPLMEGEAPVRVWSPDLALDLSAQNRRLLEELYHEDPLFRDVGTEALELAAKLSHGAGGEGPRDAKKDLAAIDELAAFAASQLRGAARIAAFSLSGWDTHRNQAAAIRKPLLKLQRMLLQLQAELGPVWDRTAILAMTEFGRTARENGSAGTDHGTAGAMIMAGGAIRGGRVLGRWPGLDEAALYDRRDLMPTSDVRAWAAWTMRSLYGFDRELLERSVFPGIEMREDPGLVL”, the “soluble on expression in E. coli” value was “not soluble”.

Turning to “MASKKASGTLPPQQQVVHKVIMVGTGGVGKSALTLQFMYDEFVEEYEPTKADSYRKKVVLDGEECSIDILDTAGQEDYSAIRDNYYRSGEGFICVFSILDMESFEATNEFREQILRVKNSDSSVPIVLVGNKGDMRDQRVVSAELCRQRAEQWGCHYVETSAKRRENVDKVFYDLMREMKRRKGGSQAQTGIDASASSGRKKRSGIKKHCTIL”, the “soluble on expression in E. coli” value is reported as “not soluble”.

As to “MTDCEFGYIYRLAQDYLQCVLQIPQPGSGPSKTSRVLQNVAFSVQKEVEKNLKSCLDNVNVVSVDTARTLFNQVMEKEFEDGIINWGRIVTIFAFEGILIKKLLRQQIAPDVDTYKEISYFVAEFIMNNTGEWIRQNGGWENGFVKKFEPKSGWMTFLEVTGKICEMLSLLKQYC”, the “soluble on expression in E. coli” value is given as “soluble”.

In the case of “MGSDKIHHHHHHMTELLARNADCIVWLARYMERAENLARILGVAETFARDRAGRNWLAVVQINADEERFFARHRVADARTVPHFYILDPDNPNSILSSIKAARENARTLRPMISIEMWRQINRMNTWMGGLSDNAVAPANLAALCEEIKEACQLHVGITEGTFYRDQAHYFYHLGKSIERADQTTRLLDIKYHTLLPRPEDVGSALDISHWNALLKAVAGYQASRRVLAGKITPRSVAAFLLFSDSFPRSVILCVRQMDWLMTQLRTRYHLRGGVKALELLDGLRAALTDHDIDHVIDHGLHEFIDWVQSQLMAIFAEIQDSFCVTRQPSQSQSQ”, the “soluble on expression in E. coli” value was “not soluble”.
